Source: the Human Domainome abundance scans (Beltran et al. 2025)
± gives the uncertainty stated by the source.

B1: Ankyrin-3, residues 4094 to 4171; numbered along this chain, Q12955 (parent)
chain: MAIVADHLGLSWTELARELNFSVDEINQIRVENPNSLISQSFMLLKKWVTRDGKNATTDALTSVLTKINRIDIVTLLE

Variants of: B1
Test: abundance fitness (aPCA) (normalised: wild type 0, dead -1); higher = more abundant; growth selection in yeast, the domain comes from the species named
Conditions: Homo sapiens

Variant | abundance fitness
F21Y | -0.358 ± 0.18
F21T | -0.869 ± 0.32
F21H | -0.842 ± 0.4
F21M | -0.561 ± 0.14
F21S | -0.893 ± 0.13
F21G | -0.7 ± 0.082
F21V | -0.81 ± 0.1
R30I | 0.064 ± 0.11
R30K | -0.02 ± 0.16
R30S | -0.074 ± 0.058
R30Y | -0.061 ± 0.33
R30C | -0.112 ± 0.11
K47F | -0.138 ± 0.18
K47M | -0.005 ± 0.08
K47Y | -0.39 ± 0.15
K47P | -0.956 ± 0.13
K47G | -0.31 ± 0.05
K47L | -0.099 ± 0.045
K47D | -0.177 ± 0.19
L77Q | -0.805 ± 0.23
L77I | -0.293 ± 0.22
L77V | -0.139 ± 0.048
L77R | -0.93 ± 0.13
L77S | -0.526 ± 0.088

Variant | abundance fitness
L19P | -0.855 ± 0.12
L19M | -0.33 ± 0.14
D72P | -0.396 ± 0.12
D72E | -0.567 ± 0.17
L65D | 0.076 ± 0.19
L65A | -1.14 ± 0.19
E14I | -0.278 ± 0.14
E14Y | -0.432 ± 0.15
N33P | -0.812 ± 0.18
N33H | -0.023 ± 0.16
N33Y | -0.168 ± 0.12
R51K | -0.531 ± 0.12
R51G | -0.499 ± 0.082
A5Y | -0.745 ± 0.34
A5H | -0.716 ± 0.43
N35L | -0.626 ± 0.065
N35S | -0.174 ± 0.058
N35V | -0.48 ± 0.079
N35I | -0.337 ± 0.29
D59L | -0.133 ± 0.048
D59R | -0.072 ± 0.048
D59M | 0.022 ± 0.085
D59V | -0.117 ± 0.049
V49A | 0.022 ± 0.051

Variant | abundance fitness
V49I | -0.041 ± 0.082
V49T | -0.115 ± 0.077
V49N | 0.057 ± 0.17
V49L | -0.058 ± 0.06
V49M | -0.082 ± 0.074
V49E | 0.087 ± 0.089
V49P | -1.02 ± 0.19
V64C | 0.05 ± 0.12
V64S | -0.06 ± 0.089
V64A | -0.081 ± 0.078
V64F | 0.111 ± 0.052
V64W | -0.644 ± 0.26
V64L | 0.111 ± 0.07
Q40G | -0.74 ± 0.086
Q40Y | -0.672 ± 0.28
Q40P | -0.646 ± 0.096
Q40V | -0.894 ± 0.15
Q40C | -0.127 ± 0.14
L10F | 0.032 ± 0.062
L10M | -0.114 ± 0.094
L10R | -0.022 ± 0.052
L10N | -0.133 ± 0.21
L10V | 0.029 ± 0.06
L10Q | 0.04 ± 0.074

Variant | abundance fitness
L10D | -0.011 ± 0.11
L10E | 0.05 ± 0.071
E25T | -0.334 ± 0.091
E25P | -0.957 ± 0.13
E25R | -0.947 ± 0.14
E25F | -0.771 ± 0.17
T57H | -0.176 ± 0.1
T57M | -0.394 ± 0.11
T57I | -0.779 ± 0.3
T57G | -0.387 ± 0.06
T57A | -0.195 ± 0.066
T57W | -0.931 ± 0.18
N69M | -0.61 ± 0.23
N69E | -0.032 ± 0.12
N69P | -0.811 ± 0.16
N69L | -0.679 ± 0.1
N69K | -0.104 ± 0.14
N69W | -1.01 ± 0.44
L61M | -0.223 ± 0.12
L61S | -0.665 ± 0.11
L61I | -0.355 ± 0.1
I73G | -0.977 ± 0.15
I73C | -0.695 ± 0.16
I73E | -0.989 ± 0.31

Variant | abundance fitness
I73A | -0.631 ± 0.16
I73P | -0.858 ± 0.17
I73W | -0.793 ± 0.15
M1D | -0.643 ± 0.42
T66E | -0.182 ± 0.16
T66V | 0.018 ± 0.045
T66L | -0.102 ± 0.05
T66M | -0.054 ± 0.076
T62N | -0.44 ± 0.48
T62G | -0.201 ± 0.058
T62V | -0.057 ± 0.084
T62Y | -0.12 ± 0.13
R70D | -0.753 ± 0.25
R70M | -0.774 ± 0.33
R70Q | -0.908 ± 0.23
S11D | 0.092 ± 0.13
S11I | -0.422 ± 0.19
S11P | -1.03 ± 0.24
S11Q | -0.053 ± 0.076
S11A | -0.31 ± 0.073
I68V | -0.284 ± 0.065
D6M | -0.299 ± 0.17
D6W | -0.517 ± 0.079
D6I | -0.755 ± 0.42

Variant | abundance fitness
D6E | 0.096 ± 0.069
D6V | -0.296 ± 0.07
D6G | -0.156 ± 0.05
D6Y | -0.342 ± 0.12
F42H | 0.119 ± 0.1
F42T | 0.086 ± 0.087
F42D | 0.165 ± 0.086
F42N | 0.104 ± 0.22
F42V | 0.042 ± 0.056
E78D | -0.001 ± 0.072
E78N | -0.014 ± 0.09
S63H | -0.051 ± 0.1
S63Y | -0.003 ± 0.13
S63W | -0.405 ± 0.086
S63R | -0.004 ± 0.059
S63N | -0.106 ± 0.24
S39E | -0.103 ± 0.094
S39H | -0.084 ± 0.17
S39P | -0.685 ± 0.13
S39K | 0 ± 0.16
S39N | 0.142 ± 0.28
S39C | -0.011 ± 0.14
K46S | -0.024 ± 0.052
K46F | -0.762 ± 0.3

Variant | abundance fitness
K46N | -0.044 ± 0.11
K46L | -0.377 ± 0.061
L45G | -0.906 ± 0.1
L45V | -0.603 ± 0.084
L45E | -0.851 ± 0.28
L45S | -0.881 ± 0.12
L45M | -0.193 ± 0.085
G9N | -0.047 ± 0.16
G9M | -0.244 ± 0.11
G9C | -0.781 ± 0.14
N27S | -0.125 ± 0.06
N27H | -0.06 ± 0.12
N27Y | -0.149 ± 0.14
N27G | -0.798 ± 0.1
N27A | -0.082 ± 0.067
N27F | -0.244 ± 0.08
N27L | -0.383 ± 0.054
S22Y | -0.646 ± 0.37
D24V | -0.341 ± 0.069
D24W | -0.435 ± 0.077
D24I | -0.4 ± 0.19
D24L | -0.272 ± 0.063
L15Q | -0.75 ± 0.33
